Data on 1 molecule can be found in publication PMC10999626, “Kinetic modeling of the plasma pharmacokinetic profiles of ADAMTS13 fragment and its Fc-fusion counterpart in mice” (Frontiers in Pharmacology, 2024).

Test [1] concerns the target T1, biotinylated mouse FcRn protein (mouse, UniProt Q61559 22-297, biotin (biotinylated; site not stated)).
T1 construct: neonatal Fc receptor (FcRn), mouse; also called mouse neonatal Fc-receptor; source: bought: Acro Biosystems
T1 sequence (looked up): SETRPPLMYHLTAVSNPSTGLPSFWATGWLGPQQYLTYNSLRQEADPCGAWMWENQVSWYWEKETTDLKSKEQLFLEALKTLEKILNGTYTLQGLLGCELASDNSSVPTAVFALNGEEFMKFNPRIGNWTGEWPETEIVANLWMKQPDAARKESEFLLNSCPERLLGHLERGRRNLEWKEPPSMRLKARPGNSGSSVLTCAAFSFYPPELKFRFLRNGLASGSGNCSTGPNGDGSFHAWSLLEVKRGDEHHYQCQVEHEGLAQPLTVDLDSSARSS
Description: BLI; biotinylated mouse FcRn (1.0 ug/mL) immobilised on streptavidin biosensor tip; MDTCS-Fc 0.625 to 20 nM in solution; 25 mM acetate, 25 mM NaH2PO4, 150 mM NaCl, 0.01% Tween-20, pH 6.0; association 5 min, dissociation 5 min; Octet Qke; biosensors without FcRn subtracted. As to conditions: both partners purified.

The target in test [2] is T1, biotinylated mouse FcRn protein. The test is described as above. As to conditions: both partners purified. The source holds these as a separate data set.

B1: MDTCS-Fc (Fc fusion)
chain: AAGGILHLELLVAVGPDVFQAHQEDTERYVLTNLNIGAELLRDPSLGAQFRVHLVKMVILTEPEGAPNITANLTSSLLSVCGWSQTINPEDDTDPGHADLVLYITRFDLELPDGNRQVRGVTQLGGACSPTWSCLITEDTGFDLGVTIAHEIGHSFGLEHDGAPGSGCGPSGHVMASDGAAPRAGLAWSPCSRRQLLSLLSAGRARCVWDPPRPQPGSAGHPPDAQPGLYYSANEQCRVAFGPKAVACTFAREHLDMCQALSCHTDPLDQSSCSRLLVPLLDGTECGVEKWCSKGRCRSLVELTPIAAVHGRWSSWGPRSPCSRSCGGGVVTRRRQCNNPRPAFGGRACVGADLQAEMCNTQACEKTQLEFMSQQCARTDGQPLRSSPGGASFYHWGAAVPHSQGDALCRHMCRAIGESFIMKRGDSFLDGTRCMPSGPREDGTLSLCVSGSCRTFGCDGRMDSQQVWDRCQVCGGDNSTCSPRKGSFTAGRAREYVTFLTVTPNLTSVYIANHRPLFTHLAVRIGGRYVVAGKMSISPNTTYPSLLEDGRVEYRVALTEDRLPRLEEIRIWGPLQEDADIQVYRRYGEEYGNLTRPDITFTYFQPKPRQAEPKSCDKTHTCPPCPAPEFLGGPSVFLFPPKPKDTLYITREPEVTCVVVDVSQEDPEVQFNWYVDGVEVHNAKTKPREEQFNSTYRVVSVLTVLHQDWLNGKEYKCKVSNKGLPSSIEKTISKAKGQPREPQVYTLPPSQEEMTKNQVSLTCLVKGFYPSDIAVEWESNGQPENNYKTTPPVLDSDGSFFLYSRLTVDKSRWQEGNVFSCSVMHEALHNHYTQKSLSLSL
For the molecule B1, the koff in test [1] is 1.96e-06 s⁻¹. For the same molecule, the Kd in test [2] came to 0.144 ± 0.022 nM.
